According to patent US20220332804A1 (CSL INNOVATION, published 2022):

Columns and labels:
[1] = biological target: T1, human C2 L620A (human, UniProt P06681 21-752); assay: SPR, KD relative to WT C2;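 also: biacore SPR at 37 °C, anti-C2 mAbs captured on anti-human IgG chips with alanine or serine point mutants of C2 as analyte, KD from 1:1 fit compared with wild-type C2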
T1 sequence: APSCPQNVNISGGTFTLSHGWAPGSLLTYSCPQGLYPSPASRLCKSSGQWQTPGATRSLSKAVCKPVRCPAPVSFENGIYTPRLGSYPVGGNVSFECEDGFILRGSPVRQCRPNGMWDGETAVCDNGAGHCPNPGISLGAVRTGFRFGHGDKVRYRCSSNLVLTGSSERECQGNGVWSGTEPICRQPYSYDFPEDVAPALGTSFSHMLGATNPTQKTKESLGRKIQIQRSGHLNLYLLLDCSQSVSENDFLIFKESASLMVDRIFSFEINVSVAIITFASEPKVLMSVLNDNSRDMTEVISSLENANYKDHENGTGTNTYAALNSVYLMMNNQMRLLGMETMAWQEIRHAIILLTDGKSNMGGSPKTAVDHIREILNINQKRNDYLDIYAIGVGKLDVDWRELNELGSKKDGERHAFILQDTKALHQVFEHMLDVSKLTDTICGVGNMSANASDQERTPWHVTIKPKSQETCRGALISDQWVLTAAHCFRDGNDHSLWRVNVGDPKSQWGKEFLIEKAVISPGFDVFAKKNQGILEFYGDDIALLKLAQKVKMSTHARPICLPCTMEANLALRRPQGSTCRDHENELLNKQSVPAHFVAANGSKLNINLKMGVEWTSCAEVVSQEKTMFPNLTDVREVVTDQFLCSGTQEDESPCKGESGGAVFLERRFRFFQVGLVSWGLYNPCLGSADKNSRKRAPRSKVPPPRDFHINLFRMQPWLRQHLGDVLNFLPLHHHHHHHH
Description: Surface plasmon resonance (SPR, Biacore) was used for all binding affinity analyses. In brief, goat anti-human IgG was directly immobilised onto the carboxymethyl dextran surface of CM5 sensorchips to approximately 12,000 RU using standard NHS/EDC chemistry at pH 5. The immobilised antibody surface was pre-conditioned with ten injections of polyclonal human IgG (Privigen 60 s) prepared at 1 μg/mL. Ligands (anti-C2 mAbs) were captured at the beginning of each cycle as described below. An adjacent spot or flow cell in which only Polyclonal IgG was capture was used as a reference surface. The goat anti-human IgG Fc antibody surface was regenerate in 100 mM H3PO4, injected for 45 seconds at the end of each cycle. Experiments were performed at 37° C. and the flow rate of each experiment was kept constant at 30 μL/min.
Sensogram data was double-referenced against a reference anti-IgG surface (i.e. minus anti-C2 mAb) and blank buffer injections obtained within each experiment. The binding data was fit to 1:1 (kinetic or steady-state) model using local Rmax and null refraction index (RI=0) when appropriate. Buffers and solutions were filtered (0.22 μm) prior to use.

[2] = biological target: T2, human complement C2 (human, UniProt P06681 21-752); assay: SPR, mAb captured, huC2 analyte, pH 7.3
T2 construct: Recombinant full-length human C2 with C-terminal 8x His tag, purified from Expi293F supernatant; also called human C2; huC2
T2 sequence: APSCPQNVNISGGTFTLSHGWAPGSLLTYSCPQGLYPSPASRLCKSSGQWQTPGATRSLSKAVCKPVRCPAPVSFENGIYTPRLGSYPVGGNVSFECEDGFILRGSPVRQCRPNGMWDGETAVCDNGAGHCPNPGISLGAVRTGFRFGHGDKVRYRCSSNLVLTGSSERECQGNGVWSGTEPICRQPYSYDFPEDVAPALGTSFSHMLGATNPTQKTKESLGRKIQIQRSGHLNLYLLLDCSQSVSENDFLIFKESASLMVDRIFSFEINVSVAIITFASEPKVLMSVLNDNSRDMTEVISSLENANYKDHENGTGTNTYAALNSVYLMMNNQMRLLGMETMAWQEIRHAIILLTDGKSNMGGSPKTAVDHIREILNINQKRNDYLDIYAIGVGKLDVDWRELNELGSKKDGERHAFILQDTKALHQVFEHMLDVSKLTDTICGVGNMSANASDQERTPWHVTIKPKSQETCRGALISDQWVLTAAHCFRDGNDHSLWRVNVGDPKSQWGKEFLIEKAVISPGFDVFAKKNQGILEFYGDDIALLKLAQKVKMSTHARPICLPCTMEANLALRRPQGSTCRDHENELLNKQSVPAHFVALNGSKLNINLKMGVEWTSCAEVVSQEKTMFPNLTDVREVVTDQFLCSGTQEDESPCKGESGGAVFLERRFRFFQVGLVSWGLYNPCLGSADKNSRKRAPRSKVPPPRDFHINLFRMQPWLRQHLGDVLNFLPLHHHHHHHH

[3] = biological target: T3, human C2 K274A (human, UniProt P06681 21-752); assay: SPR, mAb captured, C2 mutant analyte;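 also: Anti-C2 mAbs captured on goat anti-human IgG Biacore CM5 chips, alanine or serine C2 surface mutants flowed over at 37 °C, double-referenced sensorgrams fitted to a 1:1 binding model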
T3 sequence: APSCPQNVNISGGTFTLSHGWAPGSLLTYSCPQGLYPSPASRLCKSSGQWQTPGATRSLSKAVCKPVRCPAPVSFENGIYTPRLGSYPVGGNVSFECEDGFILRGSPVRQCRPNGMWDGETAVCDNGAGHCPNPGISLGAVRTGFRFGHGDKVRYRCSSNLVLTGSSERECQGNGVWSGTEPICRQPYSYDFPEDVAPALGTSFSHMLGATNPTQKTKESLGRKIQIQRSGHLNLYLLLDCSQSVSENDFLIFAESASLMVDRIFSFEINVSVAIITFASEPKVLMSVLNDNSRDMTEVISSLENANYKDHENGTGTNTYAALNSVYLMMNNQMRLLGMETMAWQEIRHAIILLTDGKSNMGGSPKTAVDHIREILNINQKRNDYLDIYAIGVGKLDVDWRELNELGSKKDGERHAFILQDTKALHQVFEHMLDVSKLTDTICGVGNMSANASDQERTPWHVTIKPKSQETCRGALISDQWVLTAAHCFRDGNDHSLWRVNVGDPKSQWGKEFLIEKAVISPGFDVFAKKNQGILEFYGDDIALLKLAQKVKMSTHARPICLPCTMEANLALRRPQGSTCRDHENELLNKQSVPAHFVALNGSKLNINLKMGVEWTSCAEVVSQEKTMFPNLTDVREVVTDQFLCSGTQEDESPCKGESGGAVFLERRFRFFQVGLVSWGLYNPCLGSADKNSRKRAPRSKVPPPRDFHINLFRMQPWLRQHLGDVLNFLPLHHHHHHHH

[4] = biological target: T4, human C2 E433A (human, UniProt P06681 21-752); assay: SPR, mAb captured, C2 mutant analyte;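 also: Anti-C2 mAbs captured on goat anti-human IgG Biacore CM5 chips, alanine or serine C2 surface mutants flowed over at 37 °C, double-referenced sensorgrams fitted to a 1:1 binding model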
T4 sequence: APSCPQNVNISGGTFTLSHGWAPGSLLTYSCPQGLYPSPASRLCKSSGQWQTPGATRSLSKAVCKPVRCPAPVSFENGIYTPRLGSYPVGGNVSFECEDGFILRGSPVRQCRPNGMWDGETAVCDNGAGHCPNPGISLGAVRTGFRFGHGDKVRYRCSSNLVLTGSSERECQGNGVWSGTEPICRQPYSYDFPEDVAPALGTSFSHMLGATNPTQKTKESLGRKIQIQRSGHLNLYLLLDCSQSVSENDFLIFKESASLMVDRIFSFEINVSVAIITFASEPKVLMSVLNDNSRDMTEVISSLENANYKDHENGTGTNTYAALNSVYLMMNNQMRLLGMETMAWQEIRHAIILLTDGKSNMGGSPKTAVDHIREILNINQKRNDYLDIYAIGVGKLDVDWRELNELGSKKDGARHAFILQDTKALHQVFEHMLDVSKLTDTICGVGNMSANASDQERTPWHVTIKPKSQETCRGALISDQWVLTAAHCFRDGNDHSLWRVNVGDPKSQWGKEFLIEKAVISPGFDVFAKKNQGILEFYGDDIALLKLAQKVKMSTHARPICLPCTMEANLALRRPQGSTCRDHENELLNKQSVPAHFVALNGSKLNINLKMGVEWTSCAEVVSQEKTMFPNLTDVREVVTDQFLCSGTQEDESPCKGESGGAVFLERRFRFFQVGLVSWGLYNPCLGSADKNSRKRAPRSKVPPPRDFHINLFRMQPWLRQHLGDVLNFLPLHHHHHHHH

B1: RF16-242 (antibody, human IgG4 S228P, lambda, V domains shown)
VH: EVQLLQSGAEVKKPGESLKISCKGSGYSFTSYWIGWVRQMPGKGLEWMGIIYPGDSDTRYSPSFQGQVTISADKSISTAYLQWSSLKASDTAMYYCARRGHYGDYFDYWGQGTLVTVSS
VL: SYELTQPPSVSVSPGQTARITCSGDALPKKYAYWYHQKSGQAPVLVIYEDRRRPSEIPERFSGSSSGTMATLTITGAQVEDEGVYFCYSRDRAGNQRVFGGGTQLTVLG
notes: pH-dependent anti-C2 antibody from a phage display library
Fold diff [1]: 1 fold

B2: RF16-226 (antibody)
heavy: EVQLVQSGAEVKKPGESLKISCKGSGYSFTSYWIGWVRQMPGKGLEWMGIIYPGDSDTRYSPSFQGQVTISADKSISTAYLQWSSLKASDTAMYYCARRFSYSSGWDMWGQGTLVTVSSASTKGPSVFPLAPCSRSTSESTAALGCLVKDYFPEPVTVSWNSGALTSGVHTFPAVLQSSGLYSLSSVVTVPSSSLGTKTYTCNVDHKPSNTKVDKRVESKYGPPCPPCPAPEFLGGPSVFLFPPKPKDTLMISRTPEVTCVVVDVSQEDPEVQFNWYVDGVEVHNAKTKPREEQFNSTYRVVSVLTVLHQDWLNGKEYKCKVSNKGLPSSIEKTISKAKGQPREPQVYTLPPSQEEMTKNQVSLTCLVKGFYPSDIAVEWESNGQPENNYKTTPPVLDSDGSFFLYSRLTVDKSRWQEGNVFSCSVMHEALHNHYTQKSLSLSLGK
light: SYELTQPPSVSVSPGQTARITCSGDALTSKYVAWYQQKSGLAPLLVIYEDTRRPSGIPAKFSGSSSGSVATLTISGAHGDDEADYYCYSTDASGHQRVFGGGTKLTVLSQPKAAPSVTLFPPSSEELQANKATLVCLISDFYPGAVTVAWKADGSPVKAGVETTKPSKQSNNKYAASSYLSLTPEQWKSHRSYSCQVTHEGSTVEKTVAPTECS
Kd [2]: ~0.01 µM

B3: RF16-214 (antibody, V domains shown)
VH: EVQLLESGGGLVQPGGSLRLSCAASGFTFSWYQMMWVRQAPGKGLEWVSRIYPSGGGTAYADSVKGRFTISRDNSKNTLYLQMNSLRAEDTAVYYCARDAGYGDNWGQGTLVTVSS
VL: QSALTQPPSVSVSPGQTASITCSGDKLGEKYASWYQQKAGQSPVMVIYQDRKRPSGIPERFSGSNSGNTATLTISGTQAMDEADYYCQAWDTRAVVFGGGTKLTVLG
binding result [3]: no binding
Kd [4]: 0.0164 µM
